Patent US20260185118A1 (priority 2023, published 2026)
Where a chain is given by its changes, count along the chain named.

Assays:
CsMYC2 [1] = type: cell-based, Citrus sinensis; details: tobacco leaves, 2-3 days, cytoplasm and nucleus
CsMYC2 [2] = type: biochemical, Citrus sinensis; details: with AtUBA1, AtUBC8 and ubiquitin, anti-MBP immunoblot
[3] = test system: Diaphorina citri Kuwayama; type: in vivo; details: overexpressing leaves versus blank vector control leaves, 100 psyllids starved 2 h, counted after 40 min
CsMYC2 [4] = type: binding, Citrus sinensis; details: yeast AH109, SD-Leu-Trp-His with 5 mM 3-AT
CsPUB21 = type: biochemical, Citrus sinensis; details: in the presence of E1 (AtUBA1) and E2 (AtUBC8), anti-c-myc immunoblot
CsMYC2 protein = type: cell-based, Citrus sinensis; details: tobacco leaves, 35S:CsMYC2-myc co-injected, versus 35S:YFP

B1: CsPUB21DN (protein)
chain: MILSWKRLRGGRGRRAGKKQPGVESGGEMELTTPNHFRAPISLDLMKDPVTLSTGITYDRENIEKWIHEDGNITCPVTNRVLTSFEPIPNHTIRRMIQDWCVENRSYGIERIPTPRIPVSSVEVFEINCNITTACKSEDQAGCRDLVAKIKKWTKESDRNKRCIVDNGAVSVLAEAFETFSKTCLDENVSVLEEILSTLTLLFPLAGEGLTYLGSASSMRCMVWFLKSGDLSRRRNAVLVLREIVSSDHRKVNVLLDIEGAIEPLFKLIKEPICPTATKASLVVVYRTITSASATEKPIQKFVDMGLVSLLLEMLVDAQRSLCEKALSVLDGLCSSDYGRGDAYNNSLIFPVIVKKILRVSDLATEFAVSILWKLCKNEEREEKTAFAEALQVGAFQKLLLLLQVGCADKTKEHVSELLKLLNPHRARLECIDSMDFKDLKRPF
modifications: left off: large carriers
- interaction with CsMYC2 (BiFC) (CsMYC2 [1]): does not affect the interaction with CsMYC2
- polyubiquitination of the CsMYC2 protein in vitro (CsMYC2 [2]): cannot ubiquitinate CsMYC2
- Diaphorina citri Kuwayama attracted by leaves of transgenic citrus [3]: about 40%
- interaction with CsMYC2 (yeast two-hybrid) (CsMYC2 [4]): does not affect the interaction with CsMYC2
- E3 ubiquitin ligase activity (auto-ubiquitination) (CsPUB21): does not show ubiquitination activity
- accumulated level of the CsMYC2 protein on coexpression (CsMYC2 protein): this reduction was inhibited

B2: CsPUB21: citrus plant U-box E3 ubiquitin ligase protein, amino acid sequence SEQ ID No. 1; overexpressed in citrus (protein)
chain: B1 chain with A39C
- Diaphorina citri Kuwayama attracted by leaves of transgenic citrus [3]: 63.5%
